From patent publication US20140087995A1 (published 2014)
Where two headings read alike, the source gives them in different places. Numbered stars: 1 amine (or outer) side, 2 acyl side, 3 side chain; on linkers, the order of the positions; unused ones are H or OH. Bridge positions count the residues as written; N and C are the ends. Side chains are listed from the residue outwards. Ends that are not written are not given here. * marks the point of attachment. C20 diacid = O=C(O)CCCCCCCCCCCCCCCCCCC(=O)*; γGlu = O=C(O)[C@H](CCC(=O)[*:2])N[*:1]

T1: rat calcitonin receptor (rat, UniProt P32214 25-516)
T1 construct: whole, on cells; In cell membranes prepared from transiently transfected BHK tk'ts 13 cells (Assay VIII); also called rCTR; rat calcitonin (a) receptor
T1 sequence (looked up): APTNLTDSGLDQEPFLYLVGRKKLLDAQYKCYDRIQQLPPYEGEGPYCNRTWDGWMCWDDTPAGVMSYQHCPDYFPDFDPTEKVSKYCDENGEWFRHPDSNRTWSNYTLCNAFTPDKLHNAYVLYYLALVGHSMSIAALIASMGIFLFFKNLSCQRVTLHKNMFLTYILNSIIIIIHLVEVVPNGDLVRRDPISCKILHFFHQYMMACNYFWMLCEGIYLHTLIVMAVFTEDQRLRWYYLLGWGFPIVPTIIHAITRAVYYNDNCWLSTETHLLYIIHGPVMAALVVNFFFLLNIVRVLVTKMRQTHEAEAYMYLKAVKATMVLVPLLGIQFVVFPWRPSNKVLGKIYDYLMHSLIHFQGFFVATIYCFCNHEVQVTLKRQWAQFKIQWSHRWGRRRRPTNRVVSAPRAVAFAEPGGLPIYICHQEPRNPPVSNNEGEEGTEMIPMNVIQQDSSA

T2: human calcitonin receptor (human, UniProt P30988 25-474)
T2 construct: whole, on cells; Cell membranes from the stably transfected cell line (Assay VII); also called hCTR; hCT
T2 sequence (looked up): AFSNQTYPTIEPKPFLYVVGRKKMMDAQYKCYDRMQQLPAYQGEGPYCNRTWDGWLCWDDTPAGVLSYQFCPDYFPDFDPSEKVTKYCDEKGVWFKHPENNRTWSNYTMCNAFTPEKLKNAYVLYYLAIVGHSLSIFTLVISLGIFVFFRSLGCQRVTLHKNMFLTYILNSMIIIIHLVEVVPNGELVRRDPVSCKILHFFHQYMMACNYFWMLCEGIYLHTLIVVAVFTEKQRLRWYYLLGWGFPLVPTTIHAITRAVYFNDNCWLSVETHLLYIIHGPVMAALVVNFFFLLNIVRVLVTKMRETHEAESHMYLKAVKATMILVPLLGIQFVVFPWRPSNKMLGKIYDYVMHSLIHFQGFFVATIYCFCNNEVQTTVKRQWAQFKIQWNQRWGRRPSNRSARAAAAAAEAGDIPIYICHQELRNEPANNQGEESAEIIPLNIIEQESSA

T3: rat amylin receptor (rat calcitonin receptor + rat RAMP 3) (rat, UniProt P32214 25-516; Q9JJ73 23-147)
T3 construct: whole, on cells; Receptor complex in cell membranes prepared from transiently transfected BHK tk'ts 13 cells (Assay VI); also called rAmylin-R; rat amylin 3(a) receptor
T3 sequence (looked up) 1: T1 sequence (looked up)
T3 sequence (looked up) 2: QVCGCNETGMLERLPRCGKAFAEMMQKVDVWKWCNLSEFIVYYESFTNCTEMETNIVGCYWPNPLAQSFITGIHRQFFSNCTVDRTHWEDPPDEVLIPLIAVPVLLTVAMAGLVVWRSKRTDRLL

T4: human amylin receptor (amylin 3(a) receptor: human calcitonin receptor plus RAMP-3) (human, UniProt P30988 25-474; O60896 24-148)
T4 sequence (looked up) 1: T2 sequence (looked up)
T4 sequence (looked up) 2: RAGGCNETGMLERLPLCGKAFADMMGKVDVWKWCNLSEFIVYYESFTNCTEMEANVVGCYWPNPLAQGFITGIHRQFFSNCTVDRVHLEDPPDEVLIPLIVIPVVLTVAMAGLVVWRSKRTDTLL

T5: human calcitonin receptor (human, UniProt P30988 25-474)
T5 sequence (looked up): T2 sequence (looked up)

B1: N^ε1-[(4S)-4-carboxy-4-[[(4S)-4-carboxy-4-(19-carboxynonadecanoylamino)butanoyl]amino]butanoyl]-[Asp14,Arg17,Pro21,Pro27,Pro34,Glu35]-h-amylin (peptide)
peptide: K([γGlu-γGlu-C20 diacid])CNTATCATQRLADFLRHSSPNFGAIPSSTNVGPETY-NH2
modifications: disulfide 2-7; N-terminus assumed
SMILES: CC[C@H](C)[C@H](NC(=O)[C@H](C)NC(=O)CNC(=O)[C@H](Cc1ccccc1)NC(=O)[C@H](CC(N)=O)NC(=O)[C@@H]1CCCN1C(=O)[C@H](CO)NC(=O)[C@H](CO)NC(=O)[C@H](Cc1c[nH]cn1)NC(=O)[C@H](CCCNC(=N)N)NC(=O)[C@H](CC(C)C)NC(=O)[C@H](Cc1ccccc1)NC(=O)[C@H](CC(=O)O)NC(=O)[C@H](C)NC(=O)[C@H](CC(C)C)NC(=O)[C@H](CCCNC(=N)N)NC(=O)[C@H](CCC(N)=O)NC(=O)[C@@H](NC(=O)[C@H](C)NC(=O)[C@@H]1CSSC[C@H](NC(=O)[C@@H](N)CCCCNC(=O)CC[C@H](NC(=O)CC[C@H](NC(=O)CCCCCCCCCCCCCCCCCCC(=O)O)C(=O)O)C(=O)O)C(=O)N[C@@H](CC(N)=O)C(=O)N[C@@H]([C@@H](C)O)C(=O)N[C@@H](C)C(=O)N[C@@H]([C@@H](C)O)C(=O)N1)[C@@H](C)O)C(=O)N1CCC[C@H]1C(=O)N[C@@H](CO)C(=O)N[C@@H](CO)C(=O)N[C@H](C(=O)N[C@@H](CC(N)=O)C(=O)N[C@H](C(=O)NCC(=O)N1CCC[C@H]1C(=O)N[C@@H](CCC(=O)O)C(=O)N[C@H](C(=O)N[C@@H](Cc1ccc(O)cc1)C(N)=O)[C@@H](C)O)C(C)C)[C@@H](C)O
B2: N^ε1-[(4S)-4-carboxy-4-[[(4S)-4-carboxy-4-(19-carboxynonadecanoylamino)butanoyl]amino]butanoyl]-[Asp14,Arg17,Pro21,Pro27,Pro34,Arg35]-h-amylin (peptide)
peptide: K([γGlu-γGlu-C20 diacid])CNTATCATQRLADFLRHSSPNFGAIPSSTNVGPRTY-NH2
modifications: disulfide 2-7
notes: also called compound 130
B3: N^ε1-[(4S)-4-carboxy-4-(19-carboxynonadecanoylamino)butanoyl]-[Glu14,Arg17,Pro21,Pro27,His35]-h-amylin (peptide)
peptide: K([γGlu-C20 diacid])CNTATCATQRLAEFLRHSSPNFGAIPSSTNVGSHTY-NH2
modifications: disulfide 2-7; N-terminus assumed
SMILES: CC[C@H](C)[C@H](NC(=O)[C@H](C)NC(=O)CNC(=O)[C@H](Cc1ccccc1)NC(=O)[C@H](CC(N)=O)NC(=O)[C@@H]1CCCN1C(=O)[C@H](CO)NC(=O)[C@H](CO)NC(=O)[C@H](Cc1c[nH]cn1)NC(=O)[C@H](CCCNC(=N)N)NC(=O)[C@H](CC(C)C)NC(=O)[C@H](Cc1ccccc1)NC(=O)[C@H](CCC(=O)O)NC(=O)[C@H](C)NC(=O)[C@H](CC(C)C)NC(=O)[C@H](CCCNC(=N)N)NC(=O)[C@H](CCC(N)=O)NC(=O)[C@@H](NC(=O)[C@H](C)NC(=O)[C@@H]1CSSC[C@H](NC(=O)[C@@H](N)CCCCNC(=O)CC[C@H](NC(=O)CCCCCCCCCCCCCCCCCCC(=O)O)C(=O)O)C(=O)N[C@@H](CC(N)=O)C(=O)N[C@@H]([C@@H](C)O)C(=O)N[C@@H](C)C(=O)N[C@@H]([C@@H](C)O)C(=O)N1)[C@@H](C)O)C(=O)N1CCC[C@H]1C(=O)N[C@@H](CO)C(=O)N[C@@H](CO)C(=O)N[C@H](C(=O)N[C@@H](CC(N)=O)C(=O)N[C@H](C(=O)NCC(=O)N[C@@H](CO)C(=O)N[C@@H](Cc1c[nH]cn1)C(=O)N[C@H](C(=O)N[C@@H](Cc1ccc(O)cc1)C(N)=O)[C@@H](C)O)C(C)C)[C@@H](C)O

Legend:
rat calcitonin receptor [1] = molecular target: T1, rat calcitonin receptor; test: ratio of binding IC50s: rat calcitonin receptor (Assay VIII) over rat amylin receptor (Assay VI)
[2] = molecular target: T2, human calcitonin receptor; test: ratio of binding IC50s: human calcitonin receptor (Assay VII) over human amylin receptor (Assay V)
Experimental: The resulting pellet was resuspended, homogenized and centrifuged (20.000 rpm, 15 min) in a buffer containing 20 mM Na-HEPES and 0.1 mM EDTA (pH 7.4, buffer 2). The resulting pellet was resuspended in buffer 2 and protein concentration was measured (BCA protein Assay, Pierce). The homogenate was kept cold during the whole procedure. The membranes were kept at −80° C. until use. The assay was performed in a 384 well Optiplate (PerkinElmer) in a total volume of 40 ul. Membranes were mixed with SPA beads. Final concentration of membranes 35 ng/μL final and SPA beads was 0.05 mg/well. Test-compounds were dissolved in DMSO and further diluted in assay buffer (50 mM Hepes, pH 7.4, 1 mM CaCl2, 5 mM MgCl₂, 0.1% OA and 0.02% Tween20). […] The final mixture was incubated with shaking at 400 rpm for 120 min at 25° C. prior to centrifugation (1500 rpm, 10 min). Samples were analyzed on TopCounter™ (Packard). The IC₅₀ was calculated using (one site binding competition analysis) GraphPad Prism5 as a measure of receptor affinity.
Membranes were prepared in the following way; the cells were rinsed with PBS and incubated with Versene for approximately 5 min before harvesting. The cells were flushed with PBS and the cell-suspension was centrifuged for 5 min at 1000 rpm. Cells were homogenized (Ultrathurrax) in a buffer containing 20 mM Na-HEPES and 10 mM EDTA (pH 7.4) and centrifuged at 20.000 rpm for 15 min. The resulting pellet was resuspended, homogenized and centrifuged (20.000 rpm, 15 min) in a buffer containing 20 mM Na-HEPES and 0.1 mM EDTA (pH 7.4, buffer 2). The resulting pellet was resuspended in buffer 2 and protein concentration was measured (BCA protein Assay, Pierce). The homogenate was kept cold during the whole procedure. The membranes were kept at −80° C. until use. Assay was performed in a 384 well Optiplate (PerkinElmer) in a total volume of 40 ul. Membranes were mixed with SPA beads.

rat calcitonin receptor [3] = molecular target: T1, rat calcitonin receptor; test: SPA competition binding, displacement of 125I-Calcitonin from membranes of BHK tk'ts 13 cells with rat calcitonin receptor (Assay VIII)
[4] = molecular target: T3, rat amylin receptor (rat calcitonin …); test: SPA competition binding, displacement of 125I-rat amylin from membranes of BHK tk'ts 13 cells with rat calcitonin receptor + rat RAMP 3 (Assay VI)
Experimental: (§1) The binding assay was performed using scintillation proximity assay (SPA) beads (RPNQ0001) from PerkinElmer and cell membranes from the Amylin 3(a)/CRE-luc cells (as described in Assay (II)) were used. Membranes were prepared in the following way; the cells were rinsed with PBS and incubated with Versene for approximately 5 min before harvesting. The cells were flushed with PBS and the cell-suspension was centrifuged for 5 min at 1000 rpm. Cells were homogenized (ultrathurrax) in a buffer containing 20 mM Na-HEPES and 10 mM EDTA (pH 7.4) and centrifuged at 20.000 rpm for 15 min. The resulting pellet was resuspended, homogenized and centrifuged (20.000 rpm, 15 min) in a buffer containing 20 mM Na-HEPES and 0.1 mM EDTA (pH 7.4, buffer 2). The resulting pellet was resuspended in buffer 2 and protein concentration was measured (BCA protein Assay, Pierce). The homogenate was kept cold during the whole procedure. The membranes were kept at −80° C. until use. The assay was performed in a 384 well Optiplate (PerkinElmer) in a total volume of 40 ul. Membranes were mixed with SPA beads. Final concentration of membranes 35 ng/μL final and SPA beads was 0.05 mg/well. Test-compounds were dissolved in DMSO and further diluted in assay buffer (50 mM Hepes, pH 7.4, 1 mM CaCl2, 5 mM MgCl₂, 0.1% OA and 0.02% Tween20). […] The final mixture was incubated with shaking at 400 rpm for 120 min at 25° C. prior to centrifugation (1500 rpm, 10 min). Samples were analyzed on TopCounter™ (Packard). The IC₅₀ was calculated using (one site binding competition analysis) GraphPad Prism5 as a measure of receptor affinity.
Cells were grown in DMEM with 10% FBS and 1% Pen/Strep. Approximately 48 hours after transfection, the cells were harvested and membranes were prepared.

[5] = molecular target: T4, human amylin receptor (amylin 3(a) …); test: cell-based or functional assay
[6] = molecular target: T5, human calcitonin receptor; test: cell-based or functional assay
[7] = molecular target: T4, human amylin receptor (amylin 3(a) …); test: cell-based or functional assay; remark: listed apart in the source
[8] = molecular target: T5, human calcitonin receptor; test: cell-based or functional assay; remark: listed apart in the source
[9] = molecular target: T4, human amylin receptor (amylin 3(a) …); test: SPA competition, displacement of 125I-rat amylin from membranes of BHK cells with human calcitonin receptor + RAMP-3 (Assay V)
Procedure, shortened: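 Membranes from BHK Amylin 3(a)/CRE-luc cells (35 ng/μL final) were mixed with SPA beads and test compounds in 50 mM Hepes pH 7.4 with 1 mM CaCl2, 5 mM MgCl₂, 0.1% OA and 0.02% Tween20. Incubation ran 120 min at 25° C with shaking; IC₅₀ came from one-site competition fitting.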

[10] = molecular target: T4, human amylin receptor (amylin 3(a) …); test: as above; remark: listed apart in the source
Experimental: as §1

| Binder | Ratio rCT/rAmylin binding (rat calcitonin receptor [1]) | Ratio hCT/hAmylin binding [2] | IC50 (rat calcitonin receptor [3]) [nM] | IC50 [4] [nM] | hAmylin-R funct. EC50 (pM) [5] [pM] | hCTR funct. EC50 (pM) [6] [pM] | hAmylin-R funct. EC50 (pM) [7] [pM] | hCTR funct. EC50 (pM) [8] [pM] | IC50 [9] [nM] | IC50 [10] [nM] |
| --- | --- | --- | --- | --- | --- | --- | --- | --- | --- | --- |
| B1 | 98.5 | 49.8 | 31.9 | 0.324 | – | – | – | – | – | – |
| B2 | 240 | 280 | 223 | 0.93 | – | – | – | – | – | – |
| B3 | – | – | – | – | 425 | 5580 | 425 | 5580 | 0.992 | 0.992 |
